Here are results for two molecules from patent publication US20240131162A1 (MacroGenics, published 2024).

In one assay the target is T1, HER-2 (human, UniProt P04626 23-652, limits assumed).
T1 construct: also called HER2/neu; erbB-2
The assay can be described thus: SPR (BIAcore), HER-2 immobilised, antibody as analyte. The method, then: The kinetic parameters of the binding of eluted and purified antibodies were analyzed using a BIACORE® assay (BIAcore instrument 1000, BIAcore Inc., Piscataway, N.J.) and associated software. HER-2 was immobilized on one of the four flow cells (flow cell 2) of a sensor chip surface through amine coupling chemistry (by modification of carboxymethyl groups with mixture of NHS/EDC) such that about 1000 response units (RU) of receptor was immobilized on the surface. Following this, the unreacted active esters were “capped off” with an injection of 1 M Et-NH2.

A further assay addresses human CD16A (FcγRIII-A) (human, UniProt P08637 17-208, limits assumed). The assay can be described thus: method not stated.

Chain of human CD16A (FcγRIII-A) (P08637 17-208 limits assumed): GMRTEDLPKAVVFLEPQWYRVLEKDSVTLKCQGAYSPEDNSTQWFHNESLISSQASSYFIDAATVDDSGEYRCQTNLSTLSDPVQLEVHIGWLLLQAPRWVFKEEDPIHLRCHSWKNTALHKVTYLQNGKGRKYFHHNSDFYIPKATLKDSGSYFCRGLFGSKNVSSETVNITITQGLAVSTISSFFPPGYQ

B1: ch4D5-wild-type Fc (antibody, human IgG1, kappa)
heavy: not shown
light: DIVMTQSHKFMSTSVGDRVSITCKASQDVNTAVAWYQQKPGHSPKLLIYSASFRYTGVPDRFTGSRSGTDFTFTISSVQAEDLAVYYCQQHYTTPPTFGGGTKVEIKRTVAAPSVFIFPPSDEQLKSGTASVVCLLNNFYPREAKVQWKVDNALQSGNSQESVTEQDSKDSTYSLSSTLTLSKADYEKHKVYACEVTHQGLSSPVTKSFNRGEC
notes: Chimeric 4D5; also called ch4D5-FcWT; WT
The koff is a measure of how fast the partners let go of each other. The low end stands for slow dissociation, the high end for fast dissociation. A word on the kon: it is the second-order rate constant of association. The low end stands for slow association, the high end for fast association. In the assay with HER-2, B1 gave a dissociation rate constant (koff) of approximately 3.2e-07 s⁻¹ and a kon of 170000 M⁻¹ s⁻¹.

B2: ch4D5-FcMT1 (antibody, human IgG1, kappa)
heavy: QVQLQQSGPELVKPGASLKLSCTASGFNIKDTYIHWVKQRPEQGLEWIGRIYPTNGYTRYDPKFQDKATITADTSSNTAYLQVSRLTSEDTAVYYCSRWGGDGFYAMDYWGQGASVTVSSASTKGPSVFPLAPSSKSTSGGTAALGCLVKDYFPEPVTVSWNSGALTSGVHTFPAVLQSSGLYSLSSVVTVPSSSLGTQTYICNVNHKPSNTKVDKRVEPKSCDKTHTCPPCPAPELLGGPSVFLLPPKPKDTLMISRTPEVTCVVVDVSHEDPEVKFNWYVDGVEVHNAKTKPPEEQYNSTLRVVSILTVLHQDWLNGKEYKCKVSNKALPAPIEKTISKAKGQPREPQVYTLPPSRDELTKNQVSLTCLVKGFYPSDIAVEWESNGQPENNYKTTPLVLDSDGSFFLYSKLTVDKSRWQQGNVFSCSVMHEALHNHYTQKSLSLSPGK
light: B1 light
Turning to B2, the “fold increase in binding” value with human CD16A (FcγRIII-A) stood at 10 fold.
